{
  "source": "patent US20160229919A1",
  "about": "(US Dept. of Health and Human Services, published 2016)",
  "molecules": {"B1": {"name": "YP158 rabbit monoclonal antibody (antibody, V domains shown)", "VH": "QSLEESGGDLVKPGASLTLTCTASGFSFSGDYYMCWVRQAPGKGLEWIACIGGGSNTATYYATWAKGRFTISKTSSTTVTLQMTSLTAADTATYFCARDLGFVDYALELWGPGTLVTVSS", "VL": "DIVMTQTPASVEVAVGGTVTIKCQASENMYNSLAWYQQKPGQPPKLLIYRASTLESGVPSRFKGSGSGTEYTLTISDLECADAATYYCQCTFYSHNNNYGGAFGGGTEVVV", "notes": "Rabbit hybridoma mAb (rabbit IgG)"}, "B2": {"name": "YP218 rabbit monoclonal antibody (antibody, V domains shown)", "VH": "QQQLEESGGGLVKPEGSLTLTCKASGFDLGFYFYACWVRQAPGKGLEWIACIYTAGSGSTYYASWAKGRFTISKASSTTVTLQMTSLAAADTATYFCARSTANTRSTYYLNLWGPGTLVTVSS", "VL": "DVVMTQTPASVSEPVGGTVTIKCQASQRISSYLSWYQQKPGQRPKLLIFGASTLASGVPSRFKGSGSGTEYTLTISDLECADAATYYCQSYAYFDSNNWHAFGGGTEVVV"}, "B3": {"name": "YP223 rabbit monoclonal antibody (antibody, V domains shown)", "VH": "QEQLEESGGDLVQPEGSLTLTCKASGLDFSSSYWICWVRQAPGKGLEWIGCRHTFTANTWSASWVNGRFTISRSTSLGTVDLKMTSLTAADTATYFCARDESNNDGWDFKLWGPGTLVTVSS", "VL": "AYDMTQTPASVSAAVGGTVTIKCQASQSISNYLAWYQQKPGQPPKLLIYQASTLAPGVSSRFKGSGSGTEFTLTISGVECADAATYYCQQGYTSSNVENVFGGGTGVVV"}, "B4": {"name": "YP3 rabbit monoclonal antibody (antibody, V domains shown)", "VH": "QEQLVESGGGLVQPGASLTLTCTASGIDFSRYYMCWVRQAPGKGLEGIACIYIGGSGSTYYASWAKGRFTISKASSTTVTLQMTSLTAADTATYFCARGTNLNYIFRLWGPGTLVTVSS", "VL": "DVVMTQTPSPVSAAVGGTVTIKCQASQSINNGLAWYQQKPGQPPRLLIYSASNLESGVPSRFKGSGSGTEFTLTISDLECDDAATYYCQCIWDGNSYVNAFGGGTEVVV"}},
  "key": {"[1]": {"biological_target": "human transferrin receptor (human) (UniProt P02786)", "sequence (P02786 whole entry)": "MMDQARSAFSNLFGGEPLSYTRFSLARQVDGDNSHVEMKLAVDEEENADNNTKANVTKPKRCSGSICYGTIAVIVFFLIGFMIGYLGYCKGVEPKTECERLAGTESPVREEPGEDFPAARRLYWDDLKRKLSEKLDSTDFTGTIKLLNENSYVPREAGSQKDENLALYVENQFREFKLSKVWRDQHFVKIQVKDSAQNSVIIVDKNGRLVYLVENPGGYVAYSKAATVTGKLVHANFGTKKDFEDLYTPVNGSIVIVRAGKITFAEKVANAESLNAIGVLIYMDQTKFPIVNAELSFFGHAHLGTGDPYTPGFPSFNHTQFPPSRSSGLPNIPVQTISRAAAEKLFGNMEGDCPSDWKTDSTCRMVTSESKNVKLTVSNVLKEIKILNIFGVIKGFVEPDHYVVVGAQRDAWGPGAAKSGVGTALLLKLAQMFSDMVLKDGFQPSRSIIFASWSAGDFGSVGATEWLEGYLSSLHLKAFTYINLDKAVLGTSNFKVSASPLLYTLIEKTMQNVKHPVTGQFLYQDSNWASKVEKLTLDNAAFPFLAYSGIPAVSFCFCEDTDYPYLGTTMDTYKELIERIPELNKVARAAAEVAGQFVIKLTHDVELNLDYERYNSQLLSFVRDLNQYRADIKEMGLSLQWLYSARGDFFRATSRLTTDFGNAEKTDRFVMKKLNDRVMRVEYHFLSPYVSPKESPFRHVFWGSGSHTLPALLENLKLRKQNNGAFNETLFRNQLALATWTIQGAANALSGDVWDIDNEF", "test": "flow cytometry on L55 cells"}, "[2]": {"biological_target": "human transferrin receptor (human) (UniProt P02786)", "test": "flow cytometry on YOU cells"}, "[3]": {"biological_target": "human transferrin receptor (human) (UniProt P02786)", "test": "flow cytometry on NCI-H322M cells"}, "[4]": {"biological_target": "human transferrin receptor (human) (UniProt P02786)", "test": "cell-based or functional assay"}, "[5]": {"biological_target": "human transferrin receptor (human) (UniProt P02786)", "test": "flow cytometry on EKVX cells"}, "[6]": {"biological_target": "cell-surface mesothelin on mesothelin-expressing cells (human) (UniProt Q13421)", "test": "flow cytometry on Mz-Cha-1 cells"}, "[7]": {"biological_target": "cell-surface mesothelin on mesothelin-expressing cells (human) (UniProt Q13421)", "test": "flow cytometry on KMCH cells"}, "[8]": {"biological_target": "cell-surface mesothelin on mesothelin-expressing cells (human) (UniProt Q13421)", "test": "flow cytometry on L55 cells"}, "[9]": {"biological_target": "cell-surface mesothelin on mesothelin-expressing cells (human) (UniProt Q13421)", "test": "flow cytometry on KMBC cells"}, "[10]": {"biological_target": "cell-surface mesothelin on mesothelin-expressing cells (human) (UniProt Q13421)", "test": "flow cytometry on YOU cells"}, "[11]": {"biological_target": "cell-surface mesothelin on mesothelin-expressing cells (human) (UniProt Q13421)", "test": "flow cytometry on NCI-H322M cells"}, "[12]": {"biological_target": "cell-surface mesothelin on mesothelin-expressing cells (human) (UniProt Q13421)", "test": "flow cytometry on H9 cells"}, "[13]": {"biological_target": "cell-surface mesothelin on mesothelin-expressing cells (human) (UniProt Q13421)", "test": "flow cytometry on OVCAR8 cells"}, "[14]": {"biological_target": "cell-surface mesothelin on mesothelin-expressing cells (human) (UniProt Q13421)", "test": "flow cytometry on H9 cells", "remark": "listed apart in the source"}, "[15]": {"biological_target": "cell-surface mesothelin on mesothelin-expressing cells (human) (UniProt Q13421)", "test": "flow cytometry on NCI-ADR-RES cells"}, "[16]": {"biological_target": "cell-surface mesothelin on mesothelin-expressing cells (human) (UniProt Q13421)", "test": "flow cytometry on NCI-H226 cells"}, "[17]": {"biological_target": "cell-surface mesothelin on mesothelin-expressing cells (human) (UniProt Q13421)", "test": "cell-based or functional assay"}, "[18]": {"biological_target": "cell-surface mesothelin on mesothelin-expressing cells (human) (UniProt Q13421)", "test": "flow cytometry on EKVX cells"}, "[19]": {"biological_target": "cell-surface mesothelin on mesothelin-expressing cells (human) (UniProt Q13421)", "test": "flow cytometry on M30 cells"}, "[20]": {"biological_target": "mesothelin Region I fragment (residues 296-390) (human, UniProt Q13421 296-390)", "sequence (Q13421 296-390)": "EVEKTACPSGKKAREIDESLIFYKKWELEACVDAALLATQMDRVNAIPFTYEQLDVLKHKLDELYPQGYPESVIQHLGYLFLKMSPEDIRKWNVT", "test": "ELISA on mesothelin fragments"}, "[21]": {"biological_target": "recombinant mesothelin protein (full-length mesothelin) (human) (UniProt Q13421)", "test": "ELISA, mAb titrated on mesothelin (1 ug/ml), fit with Prism"}, "[22]": {"biological_target": "mesothelin-Fc fusion protein (human) (UniProt Q13421)", "test": "sandwich ELISA: YP223 capture, mesothelin-Fc titrated, biotinylated YP218 detection"}},
  "data": [
    {"molecule": "HB21-PE40 immunotoxin", "values": [
      {"measurement": "Kd", "setting": "[1]", "value": 9.74, "unit": "nM"},
      {"measurement": "Kd", "setting": "[2]", "value": 24.7, "unit": "nM"},
      {"measurement": "Kd", "setting": "[3]", "value": 6.05, "unit": "nM"},
      {"measurement": "IC50 (ng ml^-1), cytotoxicity on EKVX cells", "setting": "[4]", "value": 0.21, "unit": "ng/mL"},
      {"measurement": "IC50 (ng ml^-1), cytotoxicity on H226-GL cells", "setting": "[4]", "value": 0.22, "unit": "ng/mL"},
      {"measurement": "IC50 (ng ml^-1), cytotoxicity on L55 cells", "setting": "[4]", "value": 0.57, "unit": "ng/mL"},
      {"measurement": "IC50 (ng ml^-1), cytotoxicity on M30 cells", "setting": "[4]", "value": 0.51, "unit": "ng/mL"},
      {"measurement": "IC50 (ng ml^-1), cytotoxicity on NCI-ADR-RES cells", "setting": "[4]", "value": 0.12, "unit": "ng/mL"},
      {"measurement": "IC50 (ng ml^-1), cytotoxicity on NCI-H322M cells", "setting": "[4]", "value": 0.31, "unit": "ng/mL"},
      {"measurement": "Kd", "setting": "[5]", "value": 6.28, "unit": "nM"}
    ]},
    {"molecule": "SS1P immunotoxin", "values": [
      {"measurement": "Kd", "setting": "[6]", "value": 1.3, "unit": "nM"},
      {"measurement": "Kd", "setting": "[7]", "value": 1.26, "unit": "nM"},
      {"measurement": "Kd", "setting": "[8]", "value": 1.04, "unit": "nM"},
      {"measurement": "Kd", "setting": "[9]", "value": 2.15, "unit": "nM"},
      {"measurement": "Kd", "setting": "[10]", "value": 1.48, "unit": "nM"},
      {"measurement": "Kd", "setting": "[11]", "value": 0.44, "unit": "nM"},
      {"measurement": "Kd", "setting": "[12]", "value": 4.82, "unit": "nM"},
      {"measurement": "Kd", "setting": "[13]", "value": 0.6, "unit": "nM"},
      {"measurement": "Kd", "setting": "[14]", "value": 1.3, "unit": "nM"},
      {"measurement": "Kd", "setting": "[15]", "value": 1.41, "unit": "nM"},
      {"measurement": "Kd", "setting": "[16]", "value": 1.49, "unit": "nM"},
      {"measurement": "IC50 (ng ml^-1), cytotoxicity on EKVX cells", "setting": "[17]", "value": 55.4, "unit": "ng/mL"},
      {"measurement": "IC50 (ng ml^-1), cytotoxicity on H9 cells", "setting": "[17]", "value": 0.076, "unit": "ng/mL"},
      {"measurement": "IC50 (ng ml^-1), cytotoxicity on H226-GL cells", "setting": "[17]", "value": 1.99, "unit": "ng/mL"},
      {"measurement": "IC50 (ng ml^-1), cytotoxicity on KMBC cells", "setting": "[17]", "value": 3.39, "unit": "ng/mL"},
      {"measurement": "IC50 (ng ml^-1), cytotoxicity on KMCH cells", "setting": "[17]", "value": 7.23, "unit": "ng/mL"},
      {"measurement": "IC50 (ng ml^-1), cytotoxicity on L55 cells", "setting": "[17]", "value": 5.89, "unit": "ng/mL"},
      {"measurement": "IC50 (ng ml^-1), cytotoxicity on M30 cells", "setting": "[17]", "value": 7.13, "unit": "ng/mL"},
      {"measurement": "IC50 (ng ml^-1), cytotoxicity on Mz-Cha-1 cells", "setting": "[17]", "value": 21.6, "unit": "ng/mL"},
      {"measurement": "IC50 (ng ml^-1), cytotoxicity on NCI-ADR-RES cells", "setting": "[17]", "value": 1.2, "unit": "ng/mL"},
      {"measurement": "IC50 (ng ml^-1), cytotoxicity on NCI-H226 cells", "setting": "[17]", "value": 5.29, "unit": "ng/mL"},
      {"measurement": "IC50 (ng ml^-1), cytotoxicity on NCI-H322M cells", "setting": "[17]", "value": 4.02, "unit": "ng/mL"},
      {"measurement": "IC50 (ng ml^-1), cytotoxicity on OVCAR8 cells", "setting": "[17]", "value": 1.82, "unit": "ng/mL"},
      {"measurement": "IC50 (ng ml^-1), cytotoxicity on YOU cells", "setting": "[17]", "value": 13, "unit": "ng/mL"},
      {"measurement": "IC50 (ng/ml), cytotoxicity on RH16 mesothelioma patient primary cells", "setting": "[17]", "value": 10.4, "unit": "ng/mL"},
      {"measurement": "IC50 (ng/ml), cytotoxicity on RH18 mesothelioma patient primary cells", "setting": "[17]", "value": "> 100", "unit": "ng/mL"},
      {"measurement": "IC50 (ng/ml), cytotoxicity on RH19 mesothelioma patient primary cells", "setting": "[17]", "value": 0.63, "unit": "ng/mL"},
      {"measurement": "IC50 (ng/ml), cytotoxicity on RH21 mesothelioma patient primary cells", "setting": "[17]", "value": 0.73, "unit": "ng/mL"},
      {"measurement": "Kd", "setting": "[18]", "value": 1.7, "unit": "nM"},
      {"measurement": "Kd", "setting": "[19]", "value": 0.49, "unit": "nM"}
    ]},
    {"molecule": "B1", "values": [
      {"measurement": "binding result", "setting": "[20]", "value": "binds"}
    ]},
    {"molecule": "B2", "values": [
      {"measurement": "Kd", "setting": "[21]", "value": 0.91, "unit": "nM"}
    ]},
    {"molecule": "B3", "values": [
      {"measurement": "EC50", "setting": "[22]", "value": 0.5, "unit": "nM"},
      {"measurement": "Kd", "setting": "[21]", "value": 0.65, "unit": "nM"}
    ]},
    {"molecule": "B4", "values": [
      {"measurement": "Kd", "setting": "[21]", "value": 0.42, "unit": "nM"}
    ]}
  ]
}
